Assay results published in patent US8101714B2, “Teleost derived antimicrobial polypeptides” (The University of Georgia Research Foundation, Inc., priority 2004, dated 2012).

How the values were obtained:
[1] = tested on: E. coli, DH5alpha strain; experiment: Anti-microbial modified broth dilution assay with recombinant NCAMP-1; type: cell-based; conditions: for MIC50 (MIC for 50% bactericidal activity): 2 h incubation, colony counts
Procedure: (§1) The recombinant protein was examined for anti-microbial activity by a modified broth dilution assay. NCAMP-1 activity was tested against Gram positive (Micrococcus luteus, Streptococcus iniae) and Gram negative (E. coli, DH5alpha strain) microorganisms. S. iniae was grown and tested for susceptibility in Todd-Hewitt broth (THB) at 30° C. E. coli and M. luteus were grown and tested at 37° C. in Mueller-Hinton broth (MHB). Overnight cultures were diluted into fresh media and grown at the indicated temperature for 3-6 h. Cultures were diluted to 5000 CFUs (colony forming units)/ml in 10 mM sodium phosphate buffer (NAPB), supplemented to 10% wvith either MHB or THB. The relationship between A620 and CFUs was previously determined in our laboratory for each bacteria. Fifty microliters of bacteria (5000 CFUs) were added to an equal volume of NCAMP-1 (or control protein) diluted in 10 mM NAPB to the indicated protein concentration. Assay tubes were incubated at the appropriate temperatures for 2 h with shaking. Colony counts were then determined by plating serial dilutions of test cultures on the appropriate media. Results are expressed as CFUs/ml.

[2] = tested on: GpC and CpG ODNs; experiment: Southwestern (ODN) blot of recombinant NCAMP-1; type: binding; conditions: Southwestern blotting, biotinylated ODNs, FIG. 13B
Procedure: Biotinylated ODNs were used to identify potential. DNA binding proteins in NCC membrane lysate preparations and to evaluate the ODN binding of recombinant NCAMP-1. Membrane lysates were prepared as indicated above. Purified recombinant NCAMP-1 was mixed with SDS-PAGE sample buffer (reducing) prior to electrophoresis. […] Membranes were blocked in Superblock (Pierce, Rockford Ill.) blocking solution with 0.05% Tween-20. ODN's were diluted in Superblock and added to membranes (1 h, room temperature). Membranes were washed (3×) in TBS with 0.5% Tween-20 (TBST). Neutraviden-HRP (Pierce) diluted in Superblock (minimum dilution 1:50000) was added and incubated for 30 min at room temperature. Blots were washed (3×) in TBST and were developed with enhanced chemiluminiscence (SuperSignal® West Pico Pierce, Rockford, Ill.).

[3] = tested on: Micrococcus luteus; experiment: Anti-microbial assay, residual colony counts; type: cell-based; conditions: M. luteus, 37 C, 2 h
Procedure: as §1, with “Fifty microliters of bacteria (5000 CFUs) were added to an equal volume of NCAMP-1 (or control protein) diluted in 10 mM NAPB to the indicated protein concentration. Assay tubes were incubated at the appropriate temperatures for 2 h with shaking.” left out
M. luteus were killed by full length recombinant NCAMP-1. […] After 2 hours, the OD620 was measured. Using a previously determined relationship of OD620 0.1=1.2×10^7 CFUs/ml, bacteria was diluted to 10^5 CFUs/ml in sodium phosphate buffer (pH8) supplemented with 10% with MH broth (assay buffer). […] Serial dilutions of each sample were plated onto MH agar plates and residual colony counts were determined. […]

[4] = tested on: Streptococcus iniae; experiment: Anti-microbial modified broth dilution assay with recombinant NCAMP-1; type: cell-based; conditions: S. iniae
Procedure: as §1

In the case of “NCAMP-d2: truncated recombinant NCAMP-1, aa 1-60 of SEQ ID NO:3 (MSAQAEETAPEAAAPVQPSQPAAKKKGPASKAKPASAEKKNKKKKGKGPGKYSQLVINAI; listed as Ictalurus punctatus)”, the MIC50 concentration [1] is reported as 1.0 µM and the “MIC50 (MIC for 50% bactericidal activity)” value [1] is reported as 1.0 µM.

B1: NCAMP-1: NCC cationic antimicrobial protein-1 from channel catfish, 203 amino acids, SEQ ID NO:3; recombinant His-tagged form expressed in E. coli (protein, listed as Ictalurus punctatus)
chain: MSAQAEETAPEAAAPVQPSQPAAKKKGPASKAKPASAEKKNKKKKGKGPGKYSQLVINAIQTLGERNGSSLFKIYNEAKKVNWFDQQHGRVYLRYSIRALLQNDTLVQVKGLGANGSFKLNKKKFIPRTKKSSVKPRKTAKPTKKPAKKAAKKKKRVSGVKKATPPPEKTSKPKKADKSPAVSAKKASKPKKAKQTKKTAKKT
modifications: His tag
notes: recombinant His-tagged form expressed in E. coli
B1 was tested, and the “ODN binding of recombinant protein” value [2] was “bind to GpC (SEQ ID NO:11) and CpG (SEQ ID NO:7)”, the bactericidal activity [3] was “killed” and the “MIC50 (MIC for 50% bactericidal activity)” value [1] was 0.43 uM (SEQ ID NO: 3). For the same molecule, the bactericidal activity ([1]; FIG. 17) was “killed”, the bactericidal activity ([4]; FIG. 17) was “killed” and the “MIC50 (MIC for 50% bactericidal activity)” value ([4]; 2 h incubation, colony counts) was 0.86 µM.

B2: NCAMP-d1: truncated recombinant NCAMP-1, aa 1-118 of SEQ ID NO:3 (protein, listed as Ictalurus punctatus)
chain: MSAQAEETAPEAAAPVQPSQPAAKKKGPASKAKPASAEKKNKKKKGKGPGKYSQLVINAIQTLGERNGSSLFKIYNEAKKVNWFDQQHGRVYLRYSIRALLQNDTLVQVKGLGANGSF
B2 was tested, and the MIC50 concentration [1] was 0.63 µM and the “MIC50 (MIC for 50% bactericidal activity)” value [1] was 0.63 µM.
